Here are results for 2 sequences from the supplement of paper PMC6379048.

Holding throughout (test): Kd (EC50 corrected by depletion factor)
For one series, the target named is T1, HNRNPD (UniProt Q14103).
T1 sequence: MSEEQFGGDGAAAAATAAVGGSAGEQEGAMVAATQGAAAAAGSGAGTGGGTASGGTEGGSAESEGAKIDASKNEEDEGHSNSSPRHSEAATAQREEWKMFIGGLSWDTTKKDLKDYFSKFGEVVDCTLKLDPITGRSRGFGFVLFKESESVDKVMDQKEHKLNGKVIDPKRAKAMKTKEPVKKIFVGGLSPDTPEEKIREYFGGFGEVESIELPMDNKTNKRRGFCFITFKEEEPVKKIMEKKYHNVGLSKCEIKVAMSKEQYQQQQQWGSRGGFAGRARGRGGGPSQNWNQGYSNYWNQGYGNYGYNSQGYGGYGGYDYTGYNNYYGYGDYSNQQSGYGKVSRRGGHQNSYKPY
The procedure, abridged:
(§1)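 HEK293-FT lysate (2.5 mg protein/well) was pre-incubated 1 h at 4°C with free RNA oligos (0 nM to 30 μM), then 30 min at 4°C with the same 5′-amino-C6 oligos coupled to NHS-Sepharose beads. Bound proteins were quantified by label-free LC-MS/MS in three biological replicates and two independent experiments, and normalised to the water control. EC50 came from a four-parameter log-logistic fit; Kd is EC50 times a protein-dependent depletion factor.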

Another series concerns the target T2, HNRNPDL (UniProt O14979).
T2 sequence: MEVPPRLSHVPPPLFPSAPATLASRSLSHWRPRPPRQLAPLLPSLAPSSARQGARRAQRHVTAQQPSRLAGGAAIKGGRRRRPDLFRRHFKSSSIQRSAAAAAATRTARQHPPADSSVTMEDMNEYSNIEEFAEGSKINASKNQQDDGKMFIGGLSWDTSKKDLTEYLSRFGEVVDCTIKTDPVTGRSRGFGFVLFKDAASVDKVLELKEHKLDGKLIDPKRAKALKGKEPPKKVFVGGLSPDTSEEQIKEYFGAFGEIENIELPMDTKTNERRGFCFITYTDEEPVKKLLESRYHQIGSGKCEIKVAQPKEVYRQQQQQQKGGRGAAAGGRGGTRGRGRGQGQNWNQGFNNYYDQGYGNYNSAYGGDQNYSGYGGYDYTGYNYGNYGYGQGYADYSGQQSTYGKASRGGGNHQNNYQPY
The procedure, abridged:
as §1

A further series deals with T3, KHSRP (UniProt Q92945).
T3 sequence: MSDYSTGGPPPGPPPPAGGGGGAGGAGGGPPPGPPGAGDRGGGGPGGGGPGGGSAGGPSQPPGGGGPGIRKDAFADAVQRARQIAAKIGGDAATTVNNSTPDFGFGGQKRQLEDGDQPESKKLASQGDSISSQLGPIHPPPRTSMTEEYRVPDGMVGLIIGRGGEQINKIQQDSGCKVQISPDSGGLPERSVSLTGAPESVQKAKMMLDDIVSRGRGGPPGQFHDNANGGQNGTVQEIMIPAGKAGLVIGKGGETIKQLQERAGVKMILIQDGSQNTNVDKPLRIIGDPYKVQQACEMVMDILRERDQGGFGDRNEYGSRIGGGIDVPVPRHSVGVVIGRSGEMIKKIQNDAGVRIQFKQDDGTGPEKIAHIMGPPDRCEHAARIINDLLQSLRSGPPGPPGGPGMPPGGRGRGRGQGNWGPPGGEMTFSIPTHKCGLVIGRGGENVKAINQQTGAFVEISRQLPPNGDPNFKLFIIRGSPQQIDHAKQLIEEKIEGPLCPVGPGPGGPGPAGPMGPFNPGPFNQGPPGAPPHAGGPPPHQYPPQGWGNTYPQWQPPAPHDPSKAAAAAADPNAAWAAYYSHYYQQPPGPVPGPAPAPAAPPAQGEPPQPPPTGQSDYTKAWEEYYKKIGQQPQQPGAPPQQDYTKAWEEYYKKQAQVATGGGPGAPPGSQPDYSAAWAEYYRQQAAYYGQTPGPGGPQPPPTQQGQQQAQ
Put shortly:
as §1

For orientation: Kd means the free concentration of one partner at which half of the binding sites on the other are occupied at equilibrium, for simple one-to-one binding. As for AAUAAA, the equilibrium dissociation constant (Kd) stood at 764 nM with HNRNPD, 152 nM with HNRNPDL and 310 nM in the series with KHSRP.

On to UAUUUAU, for which the Kd in the series with HNRNPD is 583 nM; with HNRNPDL it was 2360 nM; in the series with KHSRP it was 928 nM.
